Where no end group is shown, it is not given here.
Columns and labels:
BAZ2B BRD = BAZ2B BRD (human, UniProt Q9UIF8 1-2168); assay: ITC
BAZ2B PHD–BRD = BAZ2B PHD–BRD (human, UniProt Q9UIF8 1-2168); assay: ITC
Sequence of BAZ2B PHD–BRD (Q9UIF8 whole entry): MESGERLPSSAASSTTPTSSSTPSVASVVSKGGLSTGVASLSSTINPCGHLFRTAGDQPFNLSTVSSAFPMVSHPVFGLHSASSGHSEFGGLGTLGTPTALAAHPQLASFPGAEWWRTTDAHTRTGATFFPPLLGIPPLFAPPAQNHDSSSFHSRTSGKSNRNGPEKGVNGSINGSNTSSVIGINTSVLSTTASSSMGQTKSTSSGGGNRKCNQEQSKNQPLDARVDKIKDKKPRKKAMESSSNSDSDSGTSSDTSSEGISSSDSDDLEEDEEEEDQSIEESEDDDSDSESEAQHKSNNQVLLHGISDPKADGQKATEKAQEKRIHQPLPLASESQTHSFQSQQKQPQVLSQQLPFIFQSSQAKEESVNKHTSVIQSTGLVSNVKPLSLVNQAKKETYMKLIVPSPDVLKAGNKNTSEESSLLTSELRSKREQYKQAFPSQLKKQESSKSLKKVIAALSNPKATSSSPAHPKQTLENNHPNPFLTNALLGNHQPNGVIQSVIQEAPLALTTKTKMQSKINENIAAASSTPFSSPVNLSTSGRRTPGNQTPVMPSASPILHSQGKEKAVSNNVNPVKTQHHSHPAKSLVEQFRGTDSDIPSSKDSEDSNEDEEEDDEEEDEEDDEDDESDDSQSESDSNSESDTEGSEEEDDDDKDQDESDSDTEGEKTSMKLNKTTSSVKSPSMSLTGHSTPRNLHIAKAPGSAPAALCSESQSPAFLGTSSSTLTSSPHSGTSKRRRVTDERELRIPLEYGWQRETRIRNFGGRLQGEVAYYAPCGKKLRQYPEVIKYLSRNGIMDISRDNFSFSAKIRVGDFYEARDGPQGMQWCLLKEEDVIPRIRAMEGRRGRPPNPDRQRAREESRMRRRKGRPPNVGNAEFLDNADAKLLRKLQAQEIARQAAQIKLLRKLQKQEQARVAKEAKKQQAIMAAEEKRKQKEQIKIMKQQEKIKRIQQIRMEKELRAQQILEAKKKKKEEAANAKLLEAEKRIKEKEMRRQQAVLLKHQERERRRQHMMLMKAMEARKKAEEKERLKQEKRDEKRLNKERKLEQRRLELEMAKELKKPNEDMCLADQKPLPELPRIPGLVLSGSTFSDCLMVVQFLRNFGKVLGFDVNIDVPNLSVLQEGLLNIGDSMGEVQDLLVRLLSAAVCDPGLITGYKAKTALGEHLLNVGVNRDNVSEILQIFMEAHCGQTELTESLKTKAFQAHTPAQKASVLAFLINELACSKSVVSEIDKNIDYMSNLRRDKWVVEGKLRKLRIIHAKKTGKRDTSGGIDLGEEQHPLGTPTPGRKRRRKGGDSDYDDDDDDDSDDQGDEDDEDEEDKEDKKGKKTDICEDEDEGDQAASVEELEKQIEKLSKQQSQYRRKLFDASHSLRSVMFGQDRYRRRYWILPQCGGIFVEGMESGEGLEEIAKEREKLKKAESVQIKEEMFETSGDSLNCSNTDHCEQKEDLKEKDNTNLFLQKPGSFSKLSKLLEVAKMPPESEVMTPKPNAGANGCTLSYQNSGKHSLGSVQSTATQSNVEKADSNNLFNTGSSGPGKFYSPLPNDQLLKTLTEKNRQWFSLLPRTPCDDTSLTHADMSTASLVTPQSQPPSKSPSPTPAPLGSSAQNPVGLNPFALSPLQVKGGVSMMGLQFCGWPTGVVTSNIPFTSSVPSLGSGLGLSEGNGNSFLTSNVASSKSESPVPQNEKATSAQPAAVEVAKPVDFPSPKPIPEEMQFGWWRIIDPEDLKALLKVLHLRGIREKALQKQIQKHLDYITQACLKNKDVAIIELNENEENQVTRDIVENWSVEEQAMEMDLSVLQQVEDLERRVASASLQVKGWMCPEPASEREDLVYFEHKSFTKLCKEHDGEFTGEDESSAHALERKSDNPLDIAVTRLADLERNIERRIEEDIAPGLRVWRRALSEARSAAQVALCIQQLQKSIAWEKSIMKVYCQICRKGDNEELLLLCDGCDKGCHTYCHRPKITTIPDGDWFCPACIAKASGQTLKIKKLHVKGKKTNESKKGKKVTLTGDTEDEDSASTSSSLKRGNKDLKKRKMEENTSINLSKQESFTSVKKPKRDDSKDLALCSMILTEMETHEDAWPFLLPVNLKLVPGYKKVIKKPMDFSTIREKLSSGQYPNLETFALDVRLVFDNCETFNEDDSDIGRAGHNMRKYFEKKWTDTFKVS

Sequence of BAZ2B BRD (Q9UIF8 whole entry): as above

TGGK(Ac)APRKQLA [histone H3(11–21aa)K14ac peptide]
Kd (BAZ2B BRD): 8.2 µM | Kd (BAZ2B PHD–BRD): 10 µM

From article PMC5663869 (2017)
